Substitutions are numbered along the chain they refer to.

Data set [1] addresses T1, ComK (Bacillus subtilis, UniProt P40396).
T1 sequence: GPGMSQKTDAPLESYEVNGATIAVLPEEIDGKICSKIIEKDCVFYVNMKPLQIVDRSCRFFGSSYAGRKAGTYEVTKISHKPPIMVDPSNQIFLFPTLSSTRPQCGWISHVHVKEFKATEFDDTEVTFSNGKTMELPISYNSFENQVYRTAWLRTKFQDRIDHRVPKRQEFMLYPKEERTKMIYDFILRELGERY
Description: smFRET. Particulars: amino-C6-dT/dA at dye sites, EMSA: 20 mM Tris pH 7.0, 50 mM L-Arg, 5 mM MgCl2, 150 mM KCl, 10 mM DTT, 0.001% Tween-20, 25 nM DNA, 20 min, smFRET: room temperature, 20 mM DTT.

For data set [2], the target named is T1, ComK. Kind of data set: smFRET; Hill n 3.55 ± 0.12; unit not in visible table header, inferred from fit parameters; EMSA: 20 mM Tris pH 7.0, 50 mM L-Arg, 5 mM MgCl2, 150 mM KCl, 10 mM DTT, 0.001% Tween-20, 25 nM DNA, 20 min; smFRET: room temperature, 50 mM L-Arg, 20 mM DTT. Particulars: protein: recombinant; tags: N-terminal His6-HRV3C tag removed; GPG remains at the N-terminus; chain copies: 4; label: AlexaFluor 488 / AlexaFluor 594; blunt.

Data set [3] deals with T1, ComK. Kind of data set: smFRET; Hill n 2.93 ± 0.28; unit inferred; EMSA: 20 mM Tris pH 7.0, 50 mM L-Arg, 5 mM MgCl2, 150 mM KCl, 10 mM DTT, 0.001% Tween-20, 25 nM DNA, 20 min; smFRET: room temperature, 50 mM L-Arg, 20 mM DTT. Particulars: protein: recombinant; tags: N-terminal His6-HRV3C tag removed; GPG remains at the N-terminus; chain copies: 4; label: AlexaFluor 488 / AlexaFluor 594; blunt ends, internal mismatches in spacer.

The next data set has as its target T2, ΔCys ComK (Bacillus subtilis, UniProt P40396 1-192, C31A;C39A;C55A;C102A).
T2 sequence: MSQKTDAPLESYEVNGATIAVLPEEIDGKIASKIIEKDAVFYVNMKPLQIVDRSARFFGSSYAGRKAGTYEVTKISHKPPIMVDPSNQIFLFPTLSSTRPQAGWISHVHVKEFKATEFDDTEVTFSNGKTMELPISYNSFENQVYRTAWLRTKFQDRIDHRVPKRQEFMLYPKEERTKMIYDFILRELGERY
Kind of data set: smFRET; 30 pM DNA, 100 nM protein; EMSA: 20 mM Tris pH 7.0, 50 mM L-Arg, 5 mM MgCl2, 150 mM KCl, 10 mM DTT, 0.001% Tween-20, 25 nM DNA, 20 min; smFRET: room temperature, 50 mM L-Arg, 20 mM DTT. Particulars: protein: recombinant; chain copies: 4; label: AlexaFluor 488 / AlexaFluor 594; blunt.

The target of data set [4] is T1, ComK. Description: smFRET; Hill n 3.44 ± 0.27; unit inferred; EMSA: 20 mM Tris pH 7.0, 50 mM L-Arg, 5 mM MgCl2, 150 mM KCl, 10 mM DTT, 0.001% Tween-20, 25 nM DNA, 20 min; smFRET: room temperature, 50 mM L-Arg, 20 mM DTT. Particulars: protein: recombinant; tags: N-terminal His6-HRV3C tag removed; GPG remains at the N-terminus; chain copies: 4; label: AlexaFluor 488 / AlexaFluor 594; blunt.

Data set [5] addresses T1, ComK. Kind of data set: cryo-EM; 50 mM L-Arg; two ComK per box; EMSA: 20 mM Tris pH 7.0, 50 mM L-Arg, 5 mM MgCl2, 150 mM KCl, 10 mM DTT, 0.001% Tween-20, 25 nM DNA, 20 min; smFRET: room temperature, 50 mM L-Arg, 20 mM DTT. Particulars: protein: recombinant; tags: N-terminal His6-HRV3C tag removed; GPG remains at the N-terminus; chain copies: 4; blunt.
The target in data set [6] is T1, ComK. Kind of data set: smFRET; Hill n 2.97 ± 0.28; unit inferred; EMSA: 20 mM Tris pH 7.0, 50 mM L-Arg, 5 mM MgCl2, 150 mM KCl, 10 mM DTT, 0.001% Tween-20, 25 nM DNA, 20 min; smFRET: room temperature, 50 mM L-Arg, 20 mM DTT. Particulars: protein: recombinant; tags: N-terminal His6-HRV3C tag removed; GPG remains at the N-terminus; chain copies: 4; label: AlexaFluor 488 / AlexaFluor 594; blunt.

Data set [7] addresses T1, ComK. Description: smFRET; Hill n 3.05 ± 0.08; unit inferred; EMSA: 20 mM Tris pH 7.0, 50 mM L-Arg, 5 mM MgCl2, 150 mM KCl, 10 mM DTT, 0.001% Tween-20, 25 nM DNA, 20 min; smFRET: room temperature, 50 mM L-Arg, 20 mM DTT. Particulars: protein: recombinant; tags: N-terminal His6-HRV3C tag removed; GPG remains at the N-terminus; chain copies: 4; label: AlexaFluor 488 / AlexaFluor 594; blunt.

The target of data set [8] is T1, ComK. Description: smFRET; Hill n 4.34 ± 0.32; unit inferred; EMSA: 20 mM Tris pH 7.0, 50 mM L-Arg, 5 mM MgCl2, 150 mM KCl, 10 mM DTT, 0.001% Tween-20, 25 nM DNA, 20 min; smFRET: room temperature, 50 mM L-Arg, 20 mM DTT. Particulars: protein: recombinant; tags: N-terminal His6-HRV3C tag removed; GPG remains at the N-terminus; chain copies: 4; label: AlexaFluor 488 / AlexaFluor 594; blunt.

Data set [9] has as its target T1, ComK. Description: smFRET; Hill n 2.28 ± 0.16; unit inferred; EMSA: 20 mM Tris pH 7.0, 50 mM L-Arg, 5 mM MgCl2, 150 mM KCl, 10 mM DTT, 0.001% Tween-20, 25 nM DNA, 20 min; smFRET: room temperature, 50 mM L-Arg, 20 mM DTT. Particulars: protein: recombinant; tags: N-terminal His6-HRV3C tag removed; GPG remains at the N-terminus; chain copies: 4; label: AlexaFluor 488 / AlexaFluor 594; blunt.

Regarding comG: isolated box 1 labelled, the K half with ComK [1] (Hill n 1.76 ± 0.02, unit inferred) came out at 73 nM.

For comG: isolated box 2 labelled, the K half with ComK [1] (Hill n 1.59 ± 0.09, unit inferred) is 48 nM.

B1: comG: box 1 labelled (dsDNA)
DNA 1: CAGTTGAAAGTCTTTTTTCTTGCCAGAAAGAATTGGTTTTTCAGCATATAACATCTCACAAAATCACGTTTTCCCTGTTTGATTACCTTTTCT
DNA 2: AGAAAAGGTAATCAAACAGGGAAAACGTGATTTTGTGAGATGTTATATGCTGAAAAACCAATTCTTTCTGGCAAGAAAAAAGACTTTCAACTG
modifications: amino-C6-dT/dA at dye sites
Turning to B1, the “apparent K (half saturation)” value with ComK [2] amounted to 15 ± 1 nM.

B2: comG Mismatch: box 1 labelled (dsDNA)
DNA 1: B1 DNA 1 with T47A, A48T, T49A, A50T
DNA 2: B1 DNA 2
modifications: amino-C6-dT/dA at dye sites
Turning to B2, the “apparent K (half saturation)” value with ComK [3] amounted to 14 ± 1 nM.

B3: comG: box 2 labelled (dsDNA)
DNA 1: B1 DNA 1
DNA 2: B1 DNA 2
modifications: amino-C6-dT/dA at dye sites
For B3, in the data set with ΔCys ComK, the binding result is on record as “no binding”. In the data set with ComK [4], the “apparent K (half saturation)” value came to 16 ± 1 nM.

B4: comG unlabelled (dsDNA)
DNA 1: B1 DNA 1
DNA 2: B1 DNA 2
For B4, in the data set with ComK [5], the binding result is on record as “binds”.

B5: comG GC-55%: box 1 labelled (dsDNA)
DNA 1: B1 DNA 1 with T47G, A48C, T54G
DNA 2: B1 DNA 2 with A40C, T46G, A47C
modifications: amino-C6-dT/dA at dye sites
On to B5, for which, in the data set with ComK [6], the “apparent K (half saturation)” value amounted to 16 ± 1 nM.

B6: comG GC-72%: box 1 labelled (dsDNA)
DNA 1: B1 DNA 1 with A43G, A46C, T47G, A48C, A53G, T54G
DNA 2: B1 DNA 2 with A40C, T41C, T46G, A47C, T48G, T51C
modifications: amino-C6-dT/dA at dye sites
Take B6: the “apparent K (half saturation)” value with ComK [7] worked out at 17 ± 1 nM.

B7: addAB unlabelled (dsDNA)
DNA 1: GATGTGCGGAGATAATCAGCTTTTTATATGTGAAAAGGCCGTTTTTACCAATAGATC
DNA 2: GATCTATTGGTAAAAACGGCCTTTTCACATATAAAAAGCTGATTATCTCCGCACATC
For the molecule B7, in the data set with ComK [5], the binding result is on record as “binds”.

B8: addAB1: box 1 labelled (dsDNA)
DNA 1: B7 DNA 1
DNA 2: B7 DNA 2
modifications: amino-C6-dT/dA at dye sites
Consider B8, for which the “apparent K (half saturation)” value with ComK [8] worked out at 25 ± 6 nM.

B9: comK: box 1 labelled (dsDNA)
DNA 1: CTTATGAAAGTAAAATCGGTTTATTACTAGTCATTTAGTACCATTAAATATCATTAAAAGATGATTTTATCTTAAATG
DNA 2: CATTTAAGATAAAATCATCTTTTAATGATATTTAATGGTACTAAATGACTAGTAATAAACCGATTTTACTTTCATAAG
modifications: amino-C6-dT/dA at dye sites
With B9, the “apparent K (half saturation)” value with ComK [9] was 21 ± 2 nM.
